According to patent publication US20130089544A1 (AstraZeneca / MedImmune, published 2013):

What was measured:
[1] = molecular target: T1, human ErbB2, full length, on cells (human, UniProt P04626 23-1255); experiment: cell-based or functional assay
[2] = molecular target: T1, human ErbB2, full length, on cells; experiment: cell-based or functional assay; remark: listed apart in the source
[3] = molecular target: T2, human ErbB2 ECD-myc/His fusion protein (human, UniProt P04626 23-652); experiment: SPR, Biacore 2000 medium resolution; mAb captured on goat anti-human IgG, ErbB2(ECD)-cMyc/His injected; 1:1 fit
T2 construct: Made in-house in 293T cells; also called hErbB2(ECD)/cMyc-His; huErbB2 (ECD)/c-myc-His; not shown: c-myc/His tag of the pSecTag2Hygro vector
Protocol: The binding affinity of eight of the anti-ErbB2 antibodies was measured by medium resolution Biacore. All experiments were performed using a Biacore 2000 instrument.
First, 12 high-density goat α-human IgG antibody surfaces over three CM5 Biacore chips were prepared using routine amine coupling. […] Before each antigen injection cycle, each mAb was captured for six to nine seconds at a 100 μL/min flow rate. A 2-minute wash step followed each capture injection to stabilize each mAb baseline. […] All samples were randomly injected with several mAb capture/buffer inject cycles interspersed for double referencing. […] A flow rate of 100 μL/min. was used for all injection cycles. The data was fit to a 1:1 interaction model using CLAMP.

[4] = molecular target: T1, human ErbB2, full length, on cells; experiment: cell-based or functional assay; remark: listed apart in the source
[5] = molecular target: T1, human ErbB2, full length, on cells; experiment: cell-based or functional assay; remark: listed apart in the source
[6] = molecular target: T1, human ErbB2, full length, on cells; experiment: cell-based or functional assay; remark: listed apart in the source
[7] = molecular target: T1, human ErbB2, full length, on cells; experiment: cell-based or functional assay; remark: listed apart in the source
[8] = molecular target: T2, human ErbB2 ECD-myc/His fusion protein; experiment: SPR, Biacore T100 high resolution; mAb captured on goat anti-human IgG, hHer-2(ECD)cMyc injected; 1:1 fit
Protocol: All experiments were performed using a Biacore T100 instrument. First, a high-density goat α human IgG antibody (Caltag H10500) surface was prepared over two CM5 Biacore chips using routine amine coupling. Each mAb was diluted in HBS-P running buffer containing 100 μg/ml Bovine serum albumin (BSA).
A capture level protocol was developed for all five mAbs. Before each antigen injection cycle, each mAb was captured for 15 to 30 seconds at a 20 μL/min flow rate. A 5-minute wash step followed each capture injection to stabilize each mAb baseline. […] The samples were prepared in the running buffer described above. All samples were randomly injected with several mAb capture/buffer inject cycles interspersed for double referencing. […] A flow rate of 50 μL/min. was used for all injection cycles.
All sensorgram data were fit to a 1:1 interaction model using CLAMP.

[9] = molecular target: T2, human ErbB2 ECD-myc/His fusion protein; experiment: limited antigen ELISA, 31 ng/ml ErbB2 ECD-myc/His coated, supernatant 1:25
Protocol: […] […] Antigen-coated plates were washed three times, blocked with 1% non-fat skim milk/PBS for at least 30 minutes at room temperature, and then washed again three times. Each hybridoma line sample was titrated in 1% non-fat skim-milk/PBS 1:3 for 7 points starting from a 1:25 dilution. […] The next day, plates were washed three times and incubated with 50 μl of 400 ng/ml immunopure Goat anti-human IgG (Fc)-HRP (Pierce catalog #31416) for 1 hour at room temperature. Then, the plates were extensively washed and pat dried on paper towel to remove residual HRP in wells. HRP substrate TMB (enhanced K-blue TMB, Neogen catalog #308177) was added to each well and incubated for 30 min. The reaction was stopped by addition of 1N HCl. Optical density at 450 nm was read on a microplate reader (Titerteck Multiskan Ascent).

Binder | EC50 (ng/ml) n1, inhibition of Heregulin-induced ErbB2 phosphorylation in MCF7 cells [1] [ng/mL] | EC50 (ng/ml), inhibition of Heregulin-induced MCF7 cell proliferation [2] [ng/mL] | EC50 (ng/ml) n2, inhibition of Heregulin-induced ErbB2 phosphorylation in MCF7 cells [1] [ng/mL] | % Inhibition @10 µg/ml, Heregulin-induced MCF7 cell proliferation [2] [%] | Kd [3] [nM] | koff [3] [s⁻¹] | kon [3] [M⁻¹ s⁻¹] | 1 hr pTyr inhibition % (Heregulin-induced ErbB2 phosphorylation in MCF7 cells, hybridoma supernatant) [4] [%] | 24 hr pTyr inhibition % (Heregulin-induced ErbB2 phosphorylation in MCF7 cells, hybridoma supernatant) [4] [%] | N1 % Inhibition @40 µg/ml, BT474 cell proliferation [5] [%] | N1 EC50 (ng/ml), inhibition of BT474 cell proliferation [5] [ng/mL] | N2 % Inhibition @40 µg/ml, BT474 cell proliferation [5] [%] | N2 EC50 (ng/ml), inhibition of BT474 cell proliferation [5] [ng/mL] | % Inhibition @10 µg/ml (n1), ErbB2 phosphorylation in BT474 cells at 48 hours [6] [%] | % Inhibition @10 µg/ml (n2), ErbB2 phosphorylation in BT474 cells at 48 hours [6] [%] | % inhibition @36 µg/ml, SKBR3 cell proliferation [7] [%] | EC50 (ng/ml), inhibition of SKBR3 cell proliferation [7] [ng/mL] | Kd [8] [nM] | koff [8] [s⁻¹] | kon [8] [M⁻¹ s⁻¹] | other results
monoclonal antibody 1.71.3 (antibody, V domains shown) VH: EVQLVESGGGLVQPGGSLRLSCTASGFPFSSYDMHWVRQATGKGLEWVSAIGTAGDTFYPGSVKGRFTISRENAKNSLYLQMNSLRAGDTAVYYCAREGYSSGRYFYYGMDVWGQGTTVTVSS VL: not shown | > 10000 | > 10000 | – | – | – | – | – | – | – | – | – | – | – | – | – | – | – | – | – | – | –
monoclonal antibody 1.43 (antibody, V domains shown) VH: EVQLVESGGGLVQPGGSLRLSCAASGFTFSSYWMHWVRQTPGKGLEWVANIKQDGSEKYYVDSVKGRFTISRDNAKNSLHLQMNSLRAEDTAAYYCASFRDYGMDVWGQGTTVTVSS VL: DIQMTQSPSSLSASVGDRVTITCRASQGISNHLAWFQQKPGKAPKSLIYGASSLQTGVPSKFSGSGSGTDFTLTISSLQPEDFASYFCQQYKGYPITFGQGTRLEIK | > 10000 | ~10000 | > 10000 | 53 | – | – | – | – | – | – | – | – | – | – | – | – | – | – | – | – | –
monoclonal antibody 1.20 (antibody, V domains shown, Fully human IgG (gamma/kappa) from a XenoMouse XM3B-3 hybridoma; constant regions not tied to it; also called 1.20.1; 1.19) VH: EVQLVESGGGLVKPGGSLRLSCAASGFTFSSYTMNWVRQAPGKGLEWVSSISSSSSYIYYADSVKGRFTISRDNAKNSLYLQMNSLSAEDTAVYSCARGGDGYNYYYFDYWGQGTLVTVSS VL: DIVMTQSPGSLVVSLGERATITCKSSQSVFFRSNNKNCLAWYQQRPGQSPNLLIYWASTRESGVPDRFSGSGSGTDFTLTISSLQAEDVAVYYCQQYFGSPFTFGPGTKVDIK | 15.5 | 770 | 17.4 | 100 | 3.6 | 0.000344 | 95000 | 91 | 96 | 40 | 85.3 | 37 | 12.8 | 21 | 28 | 49 | 25.2 | – | – | – | –
monoclonal antibody 1.140 (antibody, V domains shown, Fully human IgG (gamma/kappa) from a XenoMouse XM3B-3 hybridoma; constant regions not tied to it; also called 1.124) VH: EVQLVESGGGLVKPGGSLRLSCAASGFTFSSYSMNWVRQAPRKGLEWVSSISSSSSYIYYADSVKGRFTISRDNAKNSLYLQMNSLRAEDTAVYYCARGGDGYNYYYFDYWGQGTLVTVSS VL: not shown | 14.7 | 633 | 22.9 | 91 | 3.5 | 0.000333 | 94000 | – | – | 39 | 300 | 45 | 70.9 | 31 | 33 | 44 | 42.7 | 10.6 | 0.000173 | 16400 | –
monoclonal antibody 1.96 (antibody, V domains shown, Fully human IgG (gamma/kappa) from a XenoMouse XM3B-3 hybridoma; constant regions not tied to it) VH: EVQLVESGGGLVKPGGSLRLSCAASGFTFSSYSMNWVRQAPGKGLEWVSSISSSSSYIYYADSVKGRFTISRDNAKNSLYLQMNSLRAEDTAVYYCARGGDGYNYYYFDYWGQGTLVTVSS VL: DIVMTQSPDSLAVSLGERATITCKSSQSVFFRSNNKNCLAWYQQRPGQPPNLLFYWASTRESGVPDRFSGSGSGTDFTLTISSLQAEDVAVYYCQQYFGSPFTLGPGTKVDIK | 28.8 | 2830 | 34 | 98 | 2.6 | 0.000273 | 103000 | – | – | 35 | 131 | 29 | 66.3 | 37 | 30 | 43 | 41.7 | 11.6 | 0.000194 | 16800 | –
monoclonal antibody 1.24 (antibody, V domains shown, Fully human IgG (gamma/kappa) from a XenoMouse XM3B-3 hybridoma; constant regions not tied to it; also called 1.24.3) VH: EVQLVESGGGLVKPGGSLRLSCAASGFTFSSYSMNWVRQAPGKGLEWVSSISSSSSYIYYADSVKGRFTISRDNAKNSLYLQMNSLRAEDTAVYYCARGGDGYNYYYFDYWGQGTLVTVSS VL: not shown | 42.9 | 3020 | 20.4 | 81 | 5.1 | 0.000655 | 128000 | 77 | 99 | 24 | 198 | 29 | 74.4 | – | – | 37 | 48.5 | – | – | – | LA at 31 ng/ml (OD) [9]: 2.35 OD 450 nm
